Results published in patent US20130143798A1 (Novo Nordisk, published 2013).
Numbered stars: 1 amine (or outer) side, 2 acyl side, 3 side chain; on linkers, the order of the positions; unused ones are H or OH. Square brackets hold non-standard residues; d marks the D form. Side chains are listed from the residue outwards. Ends that are not written are not given here. * marks the point of attachment. C18 diacid = O=C(O)CCCCCCCCCCCCCCCCC(=O)*; γGlu = O=C(O)[C@H](CCC(=O)[*:2])N[*:1]; AEEA = NCCOCCOCC(=O)O; Aib = CC(C)(N)C(=O)O

B1: N^ε24-([2-[2-[2-[[2-[2-[2-[[(4S)-5-hydroxy-4-[(18-hydroxy-18-oxooctadecanoyl)amino]-5-oxopentanoyl]amino]ethoxy]ethoxy]acetyl]amino]ethoxy]ethoxy]acetyl])[Lys^1 … (peptide)
peptide: HSQGTFTSDYSKYLDSKAAQEFVK([AEEA-AEEA-γGlu-C18 diacid])WLLNT-NH2
modifications: N-terminus assumed
SMILES: CC(C)C[C@H](NC(=O)[C@H](Cc1ccc(O)cc1)NC(=O)[C@H](CCCCN)NC(=O)[C@H](CO)NC(=O)[C@H](Cc1ccc(O)cc1)NC(=O)[C@H](CC(=O)O)NC(=O)[C@H](CO)NC(=O)[C@@H](NC(=O)[C@H](Cc1ccccc1)NC(=O)[C@@H](NC(=O)CNC(=O)[C@H](CCC(N)=O)NC(=O)[C@H](CO)NC(=O)[C@@H](N)Cc1c[nH]cn1)[C@@H](C)O)[C@@H](C)O)C(=O)N[C@@H](CC(=O)O)C(=O)N[C@@H](CO)C(=O)N[C@@H](CCCCN)C(=O)N[C@@H](C)C(=O)N[C@@H](C)C(=O)N[C@@H](CCC(N)=O)C(=O)N[C@@H](CCC(=O)O)C(=O)N[C@@H](Cc1ccccc1)C(=O)N[C@H](C(=O)N[C@@H](CCCCNC(=O)COCCOCCNC(=O)COCCOCCNC(=O)CC[C@H](NC(=O)CCCCCCCCCCCCCCCCC(=O)O)C(=O)O)C(=O)N[C@@H](Cc1c[nH]c2ccccc12)C(=O)N[C@@H](CC(C)C)C(=O)N[C@@H](CC(C)C)C(=O)N[C@@H](CC(N)=O)C(=O)N[C@H](C(N)=O)[C@@H](C)O)C(C)C
B2: N^ε24-([2-[2-[2-[[2-[2-[2-[[(4S)-5-hydroxy-4-[(18-hydroxy-18-oxooctadecanoyl)amino]-5-oxopentanoyl]amino]ethoxy]ethoxy]acetyl]amino]ethoxy]ethoxy]acetyl])[Glu^1 … (peptide)
peptide: HSQGTFTSDYSKYLDEKRAQEFVK([AEEA-AEEA-γGlu-C18 diacid])WLLNT-NH2
modifications: N-terminus assumed
SMILES: CC(C)C[C@H](NC(=O)[C@H](Cc1ccc(O)cc1)NC(=O)[C@H](CCCCN)NC(=O)[C@H](CO)NC(=O)[C@H](Cc1ccc(O)cc1)NC(=O)[C@H](CC(=O)O)NC(=O)[C@H](CO)NC(=O)[C@@H](NC(=O)[C@H](Cc1ccccc1)NC(=O)[C@@H](NC(=O)CNC(=O)[C@H](CCC(N)=O)NC(=O)[C@H](CO)NC(=O)[C@@H](N)Cc1c[nH]cn1)[C@@H](C)O)[C@@H](C)O)C(=O)N[C@@H](CC(=O)O)C(=O)N[C@@H](CCC(=O)O)C(=O)N[C@@H](CCCCN)C(=O)N[C@@H](CCCNC(=N)N)C(=O)N[C@@H](C)C(=O)N[C@@H](CCC(N)=O)C(=O)N[C@@H](CCC(=O)O)C(=O)N[C@@H](Cc1ccccc1)C(=O)N[C@H](C(=O)N[C@@H](CCCCNC(=O)COCCOCCNC(=O)COCCOCCNC(=O)CC[C@H](NC(=O)CCCCCCCCCCCCCCCCC(=O)O)C(=O)O)C(=O)N[C@@H](Cc1c[nH]c2ccccc12)C(=O)N[C@@H](CC(C)C)C(=O)N[C@@H](CC(C)C)C(=O)N[C@@H](CC(N)=O)C(=O)N[C@H](C(N)=O)[C@@H](C)O)C(C)C
B3: N^ε24-([2-[2-[2-[[(4S)-5-hydroxy-4-[(18-hydroxy-18-oxooctadecanoyl)amino]5-oxopentanoyl]amino]ethoxy]ethoxy]acetyl]amino]ethoxy]ethoxy]acetyl]])[Lys^17,Lys^18,G … (peptide)
peptide: HSQGTFTSDYSKYLDSKKAQEFVK([AEEA-AEEA-γGlu-C18 diacid])WLLNT
B4: N^ε16-([2-[2-[2-[[2-[2-[2-[[(4S)-5-hydroxy-4-[(18-hydroxy-18-oxooctadecanoyl)amino]-5-oxopentanoyl]amino]ethoxy]ethoxy]acetyl]amino]ethoxy]ethoxy]acetyl])[Aib^2 … (peptide)
peptide: H[Aib]QGTFTSDYSKYLDK([AEEA-AEEA-γGlu-C18 diacid])KRAQEFVQWLLNT-NH2
modifications: N-terminus assumed
SMILES: CC(C)C[C@H](NC(=O)[C@H](Cc1ccc(O)cc1)NC(=O)[C@H](CCCCN)NC(=O)[C@H](CO)NC(=O)[C@H](Cc1ccc(O)cc1)NC(=O)[C@H](CC(=O)O)NC(=O)[C@H](CO)NC(=O)[C@@H](NC(=O)[C@H](Cc1ccccc1)NC(=O)[C@@H](NC(=O)CNC(=O)[C@H](CCC(N)=O)NC(=O)C(C)(C)NC(=O)[C@@H](N)Cc1c[nH]cn1)[C@@H](C)O)[C@@H](C)O)C(=O)N[C@@H](CC(=O)O)C(=O)N[C@@H](CCCCNC(=O)COCCOCCNC(=O)COCCOCCNC(=O)CC[C@H](NC(=O)CCCCCCCCCCCCCCCCC(=O)O)C(=O)O)C(=O)N[C@@H](CCCCN)C(=O)N[C@@H](CCCNC(=N)N)C(=O)N[C@@H](C)C(=O)N[C@@H](CCC(N)=O)C(=O)N[C@@H](CCC(=O)O)C(=O)N[C@@H](Cc1ccccc1)C(=O)N[C@H](C(=O)N[C@@H](CCC(N)=O)C(=O)N[C@@H](Cc1c[nH]c2ccccc12)C(=O)N[C@@H](CC(C)C)C(=O)N[C@@H](CC(C)C)C(=O)N[C@@H](CC(N)=O)C(=O)N[C@H](C(N)=O)[C@@H](C)O)C(C)C
B5: N^ε24-([2-[2-[2-[[2-[2-[2-[[(4S)-5-hydroxy-4-[(18-hydroxy-18-oxooctadecanoyl)amino]-5-oxopentanoyl]amino]ethoxy]ethoxy]acetyl]amino]ethoxy]ethoxy]acetyl]) … (peptide)
peptide: HSQGTFTSDYSKYLDSKRAQEFVK([AEEA-AEEA-γGlu-C18 diacid])WLLST-NH2
modifications: N-terminus assumed
SMILES: CC(C)C[C@H](NC(=O)[C@H](Cc1ccc(O)cc1)NC(=O)[C@H](CCCCN)NC(=O)[C@H](CO)NC(=O)[C@H](Cc1ccc(O)cc1)NC(=O)[C@H](CC(=O)O)NC(=O)[C@H](CO)NC(=O)[C@@H](NC(=O)[C@H](Cc1ccccc1)NC(=O)[C@@H](NC(=O)CNC(=O)[C@H](CCC(N)=O)NC(=O)[C@H](CO)NC(=O)[C@@H](N)Cc1c[nH]cn1)[C@@H](C)O)[C@@H](C)O)C(=O)N[C@@H](CC(=O)O)C(=O)N[C@@H](CO)C(=O)N[C@@H](CCCCN)C(=O)N[C@@H](CCCNC(=N)N)C(=O)N[C@@H](C)C(=O)N[C@@H](CCC(N)=O)C(=O)N[C@@H](CCC(=O)O)C(=O)N[C@@H](Cc1ccccc1)C(=O)N[C@H](C(=O)N[C@@H](CCCCNC(=O)COCCOCCNC(=O)COCCOCCNC(=O)CC[C@H](NC(=O)CCCCCCCCCCCCCCCCC(=O)O)C(=O)O)C(=O)N[C@@H](Cc1c[nH]c2ccccc12)C(=O)N[C@@H](CC(C)C)C(=O)N[C@@H](CC(C)C)C(=O)N[C@@H](CO)C(=O)N[C@H](C(N)=O)[C@@H](C)O)C(C)C
B6: N^ε24-([2-[2-[2-[[2-[2-[2-[[(4S)-5-hydroxy-4-[(18-hydroxy-18-oxooctadecanoyl)amino]-5-oxopentanoyl]amino]ethoxy]ethoxy]acetyl]amino]ethoxy]ethoxy]acetyl])[Lys^1 … (peptide)
peptide: HSQGTFTSDYSKYLDSKRAQEFVK([AEEA-AEEA-γGlu-C18 diacid])WLLET-NH2
modifications: N-terminus assumed
SMILES: CC(C)C[C@H](NC(=O)[C@H](Cc1ccc(O)cc1)NC(=O)[C@H](CCCCN)NC(=O)[C@H](CO)NC(=O)[C@H](Cc1ccc(O)cc1)NC(=O)[C@H](CC(=O)O)NC(=O)[C@H](CO)NC(=O)[C@@H](NC(=O)[C@H](Cc1ccccc1)NC(=O)[C@@H](NC(=O)CNC(=O)[C@H](CCC(N)=O)NC(=O)[C@H](CO)NC(=O)[C@@H](N)Cc1c[nH]cn1)[C@@H](C)O)[C@@H](C)O)C(=O)N[C@@H](CC(=O)O)C(=O)N[C@@H](CO)C(=O)N[C@@H](CCCCN)C(=O)N[C@@H](CCCNC(=N)N)C(=O)N[C@@H](C)C(=O)N[C@@H](CCC(N)=O)C(=O)N[C@@H](CCC(=O)O)C(=O)N[C@@H](Cc1ccccc1)C(=O)N[C@H](C(=O)N[C@@H](CCCCNC(=O)COCCOCCNC(=O)COCCOCCNC(=O)CC[C@H](NC(=O)CCCCCCCCCCCCCCCCC(=O)O)C(=O)O)C(=O)N[C@@H](Cc1c[nH]c2ccccc12)C(=O)N[C@@H](CC(C)C)C(=O)N[C@@H](CC(C)C)C(=O)N[C@@H](CCC(=O)O)C(=O)N[C@H](C(N)=O)[C@@H](C)O)C(C)C

Molecular target: glucagon receptor (UniProt P47871 26-477, limits assumed)
Test: cell-based or functional assay

Sequence of glucagon receptor (P47871 26-477 limits assumed): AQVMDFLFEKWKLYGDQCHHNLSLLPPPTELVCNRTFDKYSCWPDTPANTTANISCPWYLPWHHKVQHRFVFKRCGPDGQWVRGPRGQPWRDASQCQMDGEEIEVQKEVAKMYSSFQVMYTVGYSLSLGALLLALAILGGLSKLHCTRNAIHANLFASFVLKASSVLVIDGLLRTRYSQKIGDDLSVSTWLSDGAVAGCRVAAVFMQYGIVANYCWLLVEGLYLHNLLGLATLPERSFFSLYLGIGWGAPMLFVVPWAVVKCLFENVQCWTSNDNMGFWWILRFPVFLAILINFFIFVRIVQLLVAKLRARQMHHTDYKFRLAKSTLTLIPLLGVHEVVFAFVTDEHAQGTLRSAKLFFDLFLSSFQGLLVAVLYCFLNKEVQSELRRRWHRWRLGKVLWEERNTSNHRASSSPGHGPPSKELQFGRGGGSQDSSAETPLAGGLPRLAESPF

Assay (I) Glucagon [EC50]	Binder
0.033 nM	B1
0.015 nM	B2
0.019 nM	B3
0.007 nM	B4
0.007 nM	B5
0.003 nM	B6
